According to US20170348397A1 (Janssen / Centocor, published 2017):

Tests used:
Human Serum Albumin = biological target: T1, Human Serum Albumin (human, UniProt P02768 25-609); assay: IMAC pull-down from normal serum, SDS-PAGE with Coomassie stain
T1 construct: also called HSA
Protocol: (§1) To evaluate the functionality of binders, selected FN3 domains were tested for their ability to complex with endogenous albumin in normal serum. To ensure that albumin binding was preserved when selected FN3 domains were attached at either the amino or carboxy terminus of another FN3 domain, bivalent FN3 genes were prepared to generate constructs ALB18, ALB 30, ALB 21, ALB33, ALB34 and ALB35 (Table 6).
(§2) C-terminally His6-tagged (SEQ ID NO: 72) bivalent FN3 domains (0.25-2.0 mg/mL in DPBS without calcium or magnesium) were mixed in a 1:1 volumetric ratio with normal serum and incubated for 1 hour at room temperature to allow binding to endogenous albumin in the serum. His6-tagged (SEQ ID NO: 72) FN3 domain-albumin complexes were recovered from serum via immobilized metal affinity chromatography (IMAC) using 200+ PhyTip columns containing a 5 μL resin bed (PureSpeed™ Protein Tip IMAC from Rainin Instrument LLC; Oakland, Calif.) pre-equilibrated with 50 mM Tris, pH 7.0 containing 500 mM NaCl and 10 mM imidazole. Unbound serum proteins were removed by exhaustively washing the resin with equilibration buffer. Bound protein was eluted with 25-100 μL of elution buffer (50 mM Tris, pH 7.0 containing 500 mM NaCl and 250 mM imidazole, pH 7.5). Eluates were analyzed by SDS-PAGE for the co-precipitation of albumin. SDS-PAGE gels were stained with colloidal Coomassie. […]

Cynomolgus Serum Albumin = biological target: T2, Cynomolgus Serum Albumin (cynomolgus monkey, UniProt A2V9Z4 25-608); assay: as above
T2 construct: also called Macaca Fascicularis (cynomolgus monkey) serum albumin
Protocol: as §1, §2

T1 sequence (P02768 25-609 limits assumed): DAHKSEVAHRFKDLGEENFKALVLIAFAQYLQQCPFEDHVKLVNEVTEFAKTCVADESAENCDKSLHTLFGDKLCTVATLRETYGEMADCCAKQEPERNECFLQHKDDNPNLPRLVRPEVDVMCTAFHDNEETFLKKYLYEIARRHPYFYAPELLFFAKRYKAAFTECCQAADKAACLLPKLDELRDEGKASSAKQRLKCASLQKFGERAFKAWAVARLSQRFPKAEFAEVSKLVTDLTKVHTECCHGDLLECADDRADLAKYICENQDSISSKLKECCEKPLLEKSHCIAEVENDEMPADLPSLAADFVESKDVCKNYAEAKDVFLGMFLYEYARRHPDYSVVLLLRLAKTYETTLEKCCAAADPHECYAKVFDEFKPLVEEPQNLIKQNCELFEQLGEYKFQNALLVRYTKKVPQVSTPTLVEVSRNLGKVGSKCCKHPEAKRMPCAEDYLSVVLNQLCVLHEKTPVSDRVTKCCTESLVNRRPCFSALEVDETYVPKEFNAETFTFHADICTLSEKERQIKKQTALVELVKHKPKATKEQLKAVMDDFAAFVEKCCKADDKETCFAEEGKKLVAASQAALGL
T2 sequence (A2V9Z4 25-608 limits assumed): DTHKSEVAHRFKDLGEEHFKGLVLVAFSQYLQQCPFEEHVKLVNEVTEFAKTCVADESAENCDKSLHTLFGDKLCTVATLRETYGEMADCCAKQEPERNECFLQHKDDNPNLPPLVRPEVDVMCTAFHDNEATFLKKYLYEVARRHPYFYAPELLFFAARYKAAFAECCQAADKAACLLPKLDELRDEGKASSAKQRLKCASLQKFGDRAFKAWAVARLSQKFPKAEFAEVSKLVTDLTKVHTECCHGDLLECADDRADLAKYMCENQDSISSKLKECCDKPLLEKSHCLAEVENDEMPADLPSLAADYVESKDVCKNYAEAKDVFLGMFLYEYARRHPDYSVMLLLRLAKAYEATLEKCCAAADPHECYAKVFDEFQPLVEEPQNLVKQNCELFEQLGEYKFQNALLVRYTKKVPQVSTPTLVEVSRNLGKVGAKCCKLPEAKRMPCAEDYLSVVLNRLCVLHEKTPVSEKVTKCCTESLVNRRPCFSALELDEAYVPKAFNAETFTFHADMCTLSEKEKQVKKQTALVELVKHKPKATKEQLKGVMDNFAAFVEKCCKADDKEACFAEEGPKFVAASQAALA

B1: Tencon25 (designed binder)
chain: LPAPKNLVVSEVTEDSARLSWTAPDAAFDSFLIQYQESEKVGEAIVLTVPGSERSYDLTGLKPGTEYTVSIYGVKGGHRSNPLSAIFTT
notes: Negative control of the pull-down; also called Tc25; TC25
binding result (Human Serum Albumin): no binding
binding result (Cynomolgus Serum Albumin): no binding
